Measured values taken from publication PMC10397247.

Key:
[1] = target: T1, 4H491-bH; experiment: two-hybrid library CCNG1;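 also: natural log of median RNA to DNA barcode read ratio; higher means stronger binding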
T1 chain: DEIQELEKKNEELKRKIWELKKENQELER

[2] = target: T2, 4H342-bH; experiment: two-hybrid library CCNG1;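 also: natural log of median RNA to DNA barcode read ratio; higher means stronger binding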
T2 chain: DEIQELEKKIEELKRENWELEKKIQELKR

[3] = target: T3, 4H2944-bH; experiment: two-hybrid library CCNG1;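 also: natural log of median RNA to DNA barcode read ratio; higher means stronger binding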
T3 chain: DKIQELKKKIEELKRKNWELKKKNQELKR

[4] = target: T4, 4H48-bH; experiment: two-hybrid library CCNG1;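 also: natural log of median RNA to DNA barcode read ratio; higher means stronger binding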
T4 chain: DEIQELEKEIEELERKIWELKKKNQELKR

[5] = target: T5, 4H2937-bH; experiment: two-hybrid library CCNG1;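 also: natural log of median RNA to DNA barcode read ratio; higher means stronger binding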
T5 chain: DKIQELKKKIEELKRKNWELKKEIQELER

[6] = target: T6, 4H2937-bA; experiment: two-hybrid library CCNG1;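 also: natural log of median RNA to DNA barcode read ratio; higher means stronger binding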
T6 chain: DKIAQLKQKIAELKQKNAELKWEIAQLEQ

[7] = target: T7, 4H342-bA; experiment: two-hybrid library CCNG1
T7 chain: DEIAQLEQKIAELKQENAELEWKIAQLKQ

[8] = target: T8, 4H48-bA; experiment: two-hybrid library CCNG1
T8 chain: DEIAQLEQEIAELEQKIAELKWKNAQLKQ

[9] = target: T9, 4H2944-bA; experiment: two-hybrid library CCNG1
T9 chain: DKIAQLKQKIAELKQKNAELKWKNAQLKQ

[10] = target: T10, 4H491-bA; experiment: two-hybrid library CCNG1
T10 chain: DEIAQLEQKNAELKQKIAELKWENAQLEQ

[11] = target: T11, 4H855-bH; experiment: two-hybrid library CCNG1
T11 chain: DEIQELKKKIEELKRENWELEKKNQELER

[12] = target: T12, 4H2702-bH; experiment: two-hybrid library CCNG1
T12 chain: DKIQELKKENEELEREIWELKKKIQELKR

[13] = target: T13, 4H780-bH; experiment: two-hybrid library CCNG1
T13 chain: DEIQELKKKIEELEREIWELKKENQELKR

[14] = target: T14, 4H3926-bH; experiment: two-hybrid library CCNG1
T14 chain: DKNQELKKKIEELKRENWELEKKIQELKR

[15] = target: T15, 4H918-bH; experiment: two-hybrid library CCNG1
T15 chain: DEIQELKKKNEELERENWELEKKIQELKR

[16] = target: T16, 4H575-bH; experiment: two-hybrid library CCNG1
T16 chain: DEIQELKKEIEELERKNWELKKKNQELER

[17] = target: T17, 4H2673-bH; experiment: two-hybrid library CCNG1
T17 chain: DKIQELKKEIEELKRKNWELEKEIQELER

[18] = target: T18, 4H953-bH; experiment: two-hybrid library CCNG1
T18 chain: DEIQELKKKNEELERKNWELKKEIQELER

[19] = target: T19, 4H754-bH; experiment: two-hybrid library CCNG1
T19 chain: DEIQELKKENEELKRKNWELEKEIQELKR

[20] = target: T20, 4H797-bH; experiment: two-hybrid library CCNG1
T20 chain: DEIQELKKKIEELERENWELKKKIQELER

[21] = target: T21, 4H2586-bH; experiment: two-hybrid library CCNG1
T21 chain: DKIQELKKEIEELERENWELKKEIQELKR

[22] = target: T22, 4H118-bH; experiment: two-hybrid library CCNG1
T22 chain: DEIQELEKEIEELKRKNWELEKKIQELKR

[23] = target: T23, 4H683-bH; experiment: two-hybrid library CCNG1
T23 chain: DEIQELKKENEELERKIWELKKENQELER

[24] = target: T24, 4H346-bH; experiment: two-hybrid library CCNG1
T24 chain: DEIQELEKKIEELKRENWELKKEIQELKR

[25] = target: T25, 4H457-bH; experiment: two-hybrid library CCNG1
T25 chain: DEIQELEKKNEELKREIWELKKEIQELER

[26] = target: T26, 4H3427-bH; experiment: two-hybrid library CCNG1
T26 chain: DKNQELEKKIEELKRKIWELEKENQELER

[27] = target: T27, 4H883-bN; experiment: two-hybrid library CCNG1
T27 chain: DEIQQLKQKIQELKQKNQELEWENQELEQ

[28] = target: T28, 4H170-bH; experiment: two-hybrid library CCNG1
T28 chain: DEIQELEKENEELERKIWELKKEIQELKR

[29] = target: T29, 4H3010-bH; experiment: two-hybrid library CCNG1
T29 chain: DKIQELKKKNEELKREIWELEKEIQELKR

[30] = target: T30, 4H3112-bH; experiment: two-hybrid library CCNG1
T30 chain: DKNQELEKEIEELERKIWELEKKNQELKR

[31] = target: T31, 4H3961-bA; experiment: two-hybrid library CCNG1
T31 chain: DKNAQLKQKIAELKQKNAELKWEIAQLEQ

[32] = target: T32, 4H1831-bH; experiment: two-hybrid library CCNG1
T32 chain: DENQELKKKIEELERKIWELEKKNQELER

[33] = target: T33, 4H968-bH; experiment: two-hybrid library CCNG1
T33 chain: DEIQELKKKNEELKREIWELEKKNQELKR

[34] = target: T34, 4H4073-bH; experiment: two-hybrid library CCNG1
T34 chain: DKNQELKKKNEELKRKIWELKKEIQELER

[35] = target: T35, 4H2627-bH; experiment: two-hybrid library CCNG1
T35 chain: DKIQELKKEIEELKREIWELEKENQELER

[36] = target: T36, APC2375-AA; experiment: two-hybrid library CCmax; details: mean of both orientations
T36 chain: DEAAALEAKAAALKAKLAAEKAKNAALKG

[37] = target: T37, APC3323-AA; experiment: two-hybrid library CCmax; details: mean of both orientations
T37 chain: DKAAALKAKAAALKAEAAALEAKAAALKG

[38] = target: T38, APC2724-AA; experiment: two-hybrid library CCmax; details: mean of both orientations
T38 chain: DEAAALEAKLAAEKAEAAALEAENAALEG

[39] = target: T39, APC9182-AA; experiment: two-hybrid library CCmax; details: mean of both orientations
T39 chain: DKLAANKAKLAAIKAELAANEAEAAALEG

[40] = target: T40, APC8401-AA; experiment: two-hybrid library CCmax; details: mean of both orientations
T40 chain: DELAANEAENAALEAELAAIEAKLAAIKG

[41] = target: T41, APC7524-AA; experiment: two-hybrid library CCmax; details: mean of both orientations
T41 chain: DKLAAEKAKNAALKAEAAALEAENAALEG

[42] = target: T42, APC222-AA; experiment: two-hybrid library CCmax; details: mean of both orientations
T42 chain: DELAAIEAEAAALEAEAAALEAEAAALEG

[43] = target: T43, APC2556-AA; experiment: two-hybrid library CCmax; details: mean of both orientations
T43 chain: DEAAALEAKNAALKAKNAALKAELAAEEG

[44] = target: T44, APC3354-AA; experiment: two-hybrid library CCmax; details: mean of both orientations
T44 chain: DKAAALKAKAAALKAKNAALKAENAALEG

[45] = target: T45, APC2257-AA; experiment: two-hybrid library CCmax; details: mean of both orientations
T45 chain: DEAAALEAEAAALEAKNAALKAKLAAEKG

[46] = target: T46, APC4336-AA; experiment: two-hybrid library CCmax; details: mean of both orientations
T46 chain: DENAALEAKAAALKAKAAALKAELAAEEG

[47] = target: T47, APC3881-AA; experiment: two-hybrid library CCmax; details: mean of both orientations
T47 chain: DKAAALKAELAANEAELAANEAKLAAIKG

[48] = target: T48, APC1987-AA; experiment: two-hybrid library CCmax
T48 chain: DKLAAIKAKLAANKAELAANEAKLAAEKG

[49] = target: T49, APC5531-AA; experiment: two-hybrid library CCmax; details: mean of both orientations
T49 chain: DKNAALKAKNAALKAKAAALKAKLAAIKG

[50] = target: T50, APC9291-AA; experiment: two-hybrid library CCmax; details: mean of both orientations
T50 chain: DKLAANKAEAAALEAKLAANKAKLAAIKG

[51] = target: T51, APC3265-AA; experiment: two-hybrid library CCmax; details: mean of both orientations
T51 chain: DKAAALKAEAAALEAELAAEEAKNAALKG

[52] = target: T52, APC6088-AA; experiment: two-hybrid library CCmax; details: mean of both orientations
T52 chain: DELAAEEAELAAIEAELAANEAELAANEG

[53] = target: T53, APC2474-AA; experiment: two-hybrid library CCmax; details: mean of both orientations
T53 chain: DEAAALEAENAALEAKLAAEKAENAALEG

[54] = target: T54, APC4100-AA; experiment: two-hybrid library CCmax; details: mean of both orientations
T54 chain: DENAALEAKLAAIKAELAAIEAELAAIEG

[55] = target: T55, APC2811-AA; experiment: two-hybrid library CCmax; details: mean of both orientations
T55 chain: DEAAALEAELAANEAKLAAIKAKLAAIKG

[56] = target: T56, APC8516-AA; experiment: two-hybrid library CCmax; details: mean of both orientations
T56 chain: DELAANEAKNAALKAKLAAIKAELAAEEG

[57] = target: T57, APC5009-AA; experiment: two-hybrid library CCmax; details: mean of both orientations
T57 chain: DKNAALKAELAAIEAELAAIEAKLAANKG

[58] = target: T58, APC9806-AA; experiment: two-hybrid library CCmax; details: mean of both orientations
T58 chain: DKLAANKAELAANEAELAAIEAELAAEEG

[59] = target: T59, APC542-AA; experiment: two-hybrid library CCmax; details: mean of both orientations
T59 chain: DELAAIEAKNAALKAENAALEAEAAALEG

[60] = target: T60, APC2543-AA; experiment: two-hybrid library CCmax; details: mean of both orientations
T60 chain: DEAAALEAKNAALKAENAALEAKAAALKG

[61] = target: T61, APC2981-AA; experiment: two-hybrid library CCmax; details: mean of both orientations
T61 chain: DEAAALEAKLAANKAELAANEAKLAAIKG

[62] = target: T62, APC9141-AA; experiment: two-hybrid library CCmax; details: mean of both orientations
T62 chain: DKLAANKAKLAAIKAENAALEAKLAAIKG

DKIQELKKKIEELKRKNWELKKEIQELER [4H2937-bH]
interaction score [1]: 0.828
interaction score [2]: 1.21
interaction score [3]: -0.833
interaction score [4]: 0.185
interaction score [5]: 0.307

DKIAQLKQKIAELKQKNAELKWEIAQLEQ [4H2937-bA]
interaction score [6]: -0.419
interaction score [7]: 1.61
interaction score [8]: 0.573
interaction score [9]: -0.548
interaction score [10]: -0.0219

DEIQELEKEIEELKRKNWELEKKIQELKR [4H118-bH]
interaction score [11]: 0.119
interaction score [12]: 0.513
interaction score [13]: 0.443
interaction score [14]: 1.57
interaction score [15]: 0.604
interaction score [16]: -0.101
interaction score [17]: 1.9
interaction score [18]: 0.224
interaction score [19]: 0.181
interaction score [20]: -0.304
interaction score [21]: 0.817
interaction score [22]: 1.75
interaction score [23]: -0.584
interaction score [24]: 0.654
interaction score [25]: 0.505
interaction score [26]: 1.04
interaction score [27]: 1.72
interaction score [28]: 1.57
interaction score [29]: 1.94
interaction score [30]: 0.102
interaction score [31]: 1.46
interaction score [32]: -0.127
interaction score [33]: 1.49
interaction score [34]: 0.239
interaction score [35]: 1.09

DKLAAIKAKLAANKAELAANEAKLAAEKG [APC1987-AA]
interaction score [36]: -1.68
interaction score [37]: -2.07
interaction score [38]: -1.7
interaction score [39]: -1.95
interaction score [40]: -1.6
interaction score [41]: -1.75
interaction score [42]: -1.81
interaction score [43]: -1.78
interaction score [44]: -1.64
interaction score [45]: -1.35
interaction score [46]: -1.72
interaction score [47]: -1.66
interaction score [48]: -2.07
interaction score [49]: -1.83
interaction score [50]: -1.88
interaction score [51]: -1.69
interaction score [52]: -1.6
interaction score [53]: -1.87
interaction score [54]: -1.33
interaction score [55]: -1.92
interaction score [56]: -2.25
interaction score [57]: -1.2
interaction score [58]: -1.87
interaction score [59]: -1.67
interaction score [60]: -2.01
interaction score [61]: -1.82
interaction score [62]: -1.68
